T1: EsCas13d, nuclease-dead (Eubacterium siraeum, UniProt B0MS50, R295A;H300A;R849A;H854A)
T1 sequence: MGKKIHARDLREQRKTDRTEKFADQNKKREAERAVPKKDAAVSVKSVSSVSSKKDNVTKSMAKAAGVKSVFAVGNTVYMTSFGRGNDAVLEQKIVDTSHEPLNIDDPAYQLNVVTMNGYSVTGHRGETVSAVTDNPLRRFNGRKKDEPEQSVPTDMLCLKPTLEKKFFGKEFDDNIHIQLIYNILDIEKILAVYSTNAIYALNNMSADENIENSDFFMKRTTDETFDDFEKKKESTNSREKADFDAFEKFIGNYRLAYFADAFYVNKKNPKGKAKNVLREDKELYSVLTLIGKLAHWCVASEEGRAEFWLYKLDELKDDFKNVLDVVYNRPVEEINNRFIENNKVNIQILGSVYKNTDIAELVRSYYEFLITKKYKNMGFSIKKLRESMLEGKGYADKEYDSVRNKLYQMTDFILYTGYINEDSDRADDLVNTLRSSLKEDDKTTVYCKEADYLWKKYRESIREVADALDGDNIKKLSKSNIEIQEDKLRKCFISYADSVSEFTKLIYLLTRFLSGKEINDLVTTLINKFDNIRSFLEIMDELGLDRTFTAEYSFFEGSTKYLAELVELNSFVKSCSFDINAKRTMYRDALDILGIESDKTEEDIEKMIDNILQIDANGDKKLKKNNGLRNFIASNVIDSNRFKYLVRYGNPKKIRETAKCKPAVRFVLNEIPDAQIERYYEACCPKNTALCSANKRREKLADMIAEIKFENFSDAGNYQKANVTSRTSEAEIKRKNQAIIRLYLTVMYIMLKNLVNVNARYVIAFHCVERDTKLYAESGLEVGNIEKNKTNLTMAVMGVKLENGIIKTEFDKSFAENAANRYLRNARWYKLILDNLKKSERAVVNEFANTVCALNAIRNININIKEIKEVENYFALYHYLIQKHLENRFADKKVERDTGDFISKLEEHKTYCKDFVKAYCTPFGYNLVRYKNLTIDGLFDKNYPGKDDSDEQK

B1: target 3 insA 3' of 6,insC 3' of 2 (mixed)
RNA 1: CACCCGUGCAAAAUUGCAGGGGUCUAAAACGACCUGAAUAUUUCAGAUCAAA
RNA 2: GGGAAUGGAUCCACAUCUACGAAUUCGUUUUUGAUCUGAAAUAUUCAAGGUCCUGCAGAUCGGAAGAGCACACGU
B2: target 3 insU 3' of 22,insU 3' of 1 (mixed)
RNA 1: CACCCGUGCAAAAUUGCAGGGGUCUAAAACGACCUGAAUAUUUCAGAUCAAA
RNA 2: GGGAAUGGAUCCACAUCUACGAAUUCGUUUUUUGAUCUGAAAUAUUCAGGUCUUGCAGAUCGGAAGAGCACACGU
B3: target 3 G4C,A18G (mixed)
RNA 1: CACCCGUGCAAAAUUGCAGGGGUCUAAAACGACCUGAAUAUUUCAGAUCAAA
RNA 2: GGGAAUGGAUCCACAUCUACGAAUUCGUUUUUGGUCUGAAAUAUUCACGUCUGCAGAUCGGAAGAGCACACGU
B4: target 3 complement block 2-7 (mixed)
RNA 1: CACCCGUGCAAAAUUGCAGGGGUCUAAAACGACCUGAAUAUUUCAGAUCAAA
RNA 2: GGGAAUGGAUCCACAUCUACGAAUUCGUUUUUGAUCUGAAAUAUAGUCCACUGCAGAUCGGAAGAGCACACGU
B5: target 3 insU 3' of 1 (mixed)
RNA 1: CACCCGUGCAAAAUUGCAGGGGUCUAAAACGACCUGAAUAUUUCAGAUCAAA
RNA 2: GGGAAUGGAUCCACAUCUACGAAUUCGUUUUUGAUCUGAAAUAUUCAGGUCUUGCAGAUCGGAAGAGCACACGU
B6: target 3 insC 3' of 8,insG 3' of 8 (mixed)
RNA 1: CACCCGUGCAAAAUUGCAGGGGUCUAAAACGACCUGAAUAUUUCAGAUCAAA
RNA 2: GGGAAUGGAUCCACAUCUACGAAUUCGUUUUUGAUCUGAAAUAUCGUCAGGUCUGCAGAUCGGAAGAGCACACGU
B7: target 3 G4A,C6A (mixed)
RNA 1: CACCCGUGCAAAAUUGCAGGGGUCUAAAACGACCUGAAUAUUUCAGAUCAAA
RNA 2: GGGAAUGGAUCCACAUCUACGAAUUCGUUUUUGAUCUGAAAUAUUAAAGUCUGCAGAUCGGAAGAGCACACGU
B8: target 3 insU 3' of 4,insG 3' of 2 (mixed)
RNA 1: CACCCGUGCAAAAUUGCAGGGGUCUAAAACGACCUGAAUAUUUCAGAUCAAA
RNA 2: GGGAAUGGAUCCACAUCUACGAAUUCGUUUUUGAUCUGAAAUAUUCAGUGUGCUGCAGAUCGGAAGAGCACACGU
B9: target 3 U8C,A18G (mixed)
RNA 1: CACCCGUGCAAAAUUGCAGGGGUCUAAAACGACCUGAAUAUUUCAGAUCAAA
RNA 2: GGGAAUGGAUCCACAUCUACGAAUUCGUUUUUGGUCUGAAAUACUCAGGUCUGCAGAUCGGAAGAGCACACGU
B10: target 3 insG 3' of 9,insG 3' of 2 (mixed)
RNA 1: CACCCGUGCAAAAUUGCAGGGGUCUAAAACGACCUGAAUAUUUCAGAUCAAA
RNA 2: GGGAAUGGAUCCACAUCUACGAAUUCGUUUUUGAUCUGAAAUAGUUCAGGUGCUGCAGAUCGGAAGAGCACACGU
B11: target 3 A18G,U21A (mixed)
RNA 1: CACCCGUGCAAAAUUGCAGGGGUCUAAAACGACCUGAAUAUUUCAGAUCAAA
RNA 2: GGGAAUGGAUCCACAUCUACGAAUUCGUUUAUGGUCUGAAAUAUUCAGGUCUGCAGAUCGGAAGAGCACACGU
B12: target 3 insG 3' of 1 (mixed)
RNA 1: CACCCGUGCAAAAUUGCAGGGGUCUAAAACGACCUGAAUAUUUCAGAUCAAA
RNA 2: GGGAAUGGAUCCACAUCUACGAAUUCGUUUUUGAUCUGAAAUAUUCAGGUCGUGCAGAUCGGAAGAGCACACGU
B13: target 3 A11C,A18C (mixed)
RNA 1: CACCCGUGCAAAAUUGCAGGGGUCUAAAACGACCUGAAUAUUUCAGAUCAAA
RNA 2: GGGAAUGGAUCCACAUCUACGAAUUCGUUUUUGCUCUGAACUAUUCAGGUCUGCAGAUCGGAAGAGCACACGU
B14: target 3 insA 3' of 6,insA 3' of 2 (mixed)
RNA 1: CACCCGUGCAAAAUUGCAGGGGUCUAAAACGACCUGAAUAUUUCAGAUCAAA
RNA 2: GGGAAUGGAUCCACAUCUACGAAUUCGUUUUUGAUCUGAAAUAUUCAAGGUACUGCAGAUCGGAAGAGCACACGU
B15: target 3 insU 3' of 1,insG 3' of 1 (mixed)
RNA 1: CACCCGUGCAAAAUUGCAGGGGUCUAAAACGACCUGAAUAUUUCAGAUCAAA
RNA 2: GGGAAUGGAUCCACAUCUACGAAUUCGUUUUUGAUCUGAAAUAUUCAGGUCUGUGCAGAUCGGAAGAGCACACGU
B16: target 3 insC 3' of 8,insU 3' of 6 (mixed)
RNA 1: CACCCGUGCAAAAUUGCAGGGGUCUAAAACGACCUGAAUAUUUCAGAUCAAA
RNA 2: GGGAAUGGAUCCACAUCUACGAAUUCGUUUUUGAUCUGAAAUAUCUCUAGGUCUGCAGAUCGGAAGAGCACACGU
B17: target 3 U8G,A18G (mixed)
RNA 1: CACCCGUGCAAAAUUGCAGGGGUCUAAAACGACCUGAAUAUUUCAGAUCAAA
RNA 2: GGGAAUGGAUCCACAUCUACGAAUUCGUUUUUGGUCUGAAAUAGUCAGGUCUGCAGAUCGGAAGAGCACACGU
B18: target 3 G3A,C6U (mixed)
RNA 1: CACCCGUGCAAAAUUGCAGGGGUCUAAAACGACCUGAAUAUUUCAGAUCAAA
RNA 2: GGGAAUGGAUCCACAUCUACGAAUUCGUUUUUGAUCUGAAAUAUUUAGAUCUGCAGAUCGGAAGAGCACACGU
B19: target 3 A12C,U22A (mixed)
RNA 1: CACCCGUGCAAAAUUGCAGGGGUCUAAAACGACCUGAAUAUUUCAGAUCAAA
RNA 2: GGGAAUGGAUCCACAUCUACGAAUUCGUUAUUGAUCUGACAUAUUCAGGUCUGCAGAUCGGAAGAGCACACGU
B20: target 3 insC 3' of 5,insU 3' of 4 (mixed)
RNA 1: CACCCGUGCAAAAUUGCAGGGGUCUAAAACGACCUGAAUAUUUCAGAUCAAA
RNA 2: GGGAAUGGAUCCACAUCUACGAAUUCGUUUUUGAUCUGAAAUAUUCACGUGUCUGCAGAUCGGAAGAGCACACGU
B21: target 3 G4A,G19U (mixed)
RNA 1: CACCCGUGCAAAAUUGCAGGGGUCUAAAACGACCUGAAUAUUUCAGAUCAAA
RNA 2: GGGAAUGGAUCCACAUCUACGAAUUCGUUUUUUAUCUGAAAUAUUCAAGUCUGCAGAUCGGAAGAGCACACGU
B22: target 3 insG 3' of 11,insU 3' of 3 (mixed)
RNA 1: CACCCGUGCAAAAUUGCAGGGGUCUAAAACGACCUGAAUAUUUCAGAUCAAA
RNA 2: GGGAAUGGAUCCACAUCUACGAAUUCGUUUUUGAUCUGAAAGUAUUCAGGUUCUGCAGAUCGGAAGAGCACACGU
B23: target 1 insC 3' of 22,insG 3' of 19 (mixed)
RNA 1: CACCCGUGCAAAAAUGCAGGGGUCUAAAACUGAGCGGAUAACCUCUCUAUGG
RNA 2: GGGAAUGGAUCCACAUCUACGAAUUCGUACCCAUGAGAGAGGUUAUCCGCUCACCGAGAUCGGAAGAGCACACGU
B24: target 1 del14,del19 (mixed)
RNA 1: CACCCGUGCAAAAAUGCAGGGGUCUAAAACUGAGCGGAUAACCUCUCUAUGG
RNA 2: GGGAAUGGAUCCACAUCUACGAAUUCGUACCAAGAGGGUUAUCCGCUCACCGAGAUCGGAAGAGCACACGU

Target: T1, EsCas13d, nuclease-dead
Test: crRNA (strand 1, pre-loaded); Mg2+; 40 mM Tris-HCl pH 7.5, 150 mM NaCl, 6 mM MgCl2, 1 mM DTT, 0.1% Tween-20, 0.2 mg/ml BSA; 25 C; 10 min per concentration, then washed
Details: tags: His6-TwinStrep-SUMO cleaved; N-terminal SNAP kept (SNAP-Surface 488); label: 3' end held by stalled T7 RNA polymerase

First: B1
Second: B2
The Kd of the first is 2.2-fold lower: 35 ± 9 nM for the first, 77.5 ± 17.5 nM for the second.

First: B3
Second: B4
The Kd of the first is 1.6-fold lower: 34.4 ± 3.95 nM for the first, 54.5 ± 7 nM for the second.

B5 and B6 are within error of each other in Kd: 85.5 ± 18.5 nM for the first, 79 ± 15.5 nM for the second.

B7 and B8 are within error of each other in Kd: 23.8 ± 2.65 nM for the first, 19.5 ± 2.35 nM for the second.

B9 and B10 are within error of each other in Kd: 55.5 ± 4.5 nM for the first, 63.5 ± 14.5 nM for the second.

B11 and B12 are within error of each other in Kd: 57.5 ± 10 nM for the first, 44.5 ± 9.5 nM for the second.

Compared with B13, B14 is 9.3-fold lower in Kd: 39 ± 4 nM for the first, 4.2 ± 0.55 nM for the second.

First: B15
Second: B16
The Kd of the first is 3.8-fold lower: 20.4 ± 2.25 nM for the first, 78 ± 11.5 nM for the second. The first binds more tightly here.

First: B17
Second: B18
The Kd of the first is 1.7-fold higher: 72.5 ± 14.5 nM for the first, 42 ± 5 nM for the second.

Going from B19 to B20, the Kd falls from 71 ± 26 nM to 9.85 ± 0.85 nM (7.2-fold). The second binds more tightly here.

B21 and B22 are within error of each other in Kd: 98.5 ± 19.5 nM for the first, 96 ± 21.5 nM for the second.

B23 and B24 are within error of each other in Kd: 64 ± 15 nM for the first, 79 ± 25 nM for the second.

— PMC10786891, “Massively parallel profiling of RNA-targeting CRISPR-Cas13d”
